# Data taken from patent US20190015518A1, “DRUG DELIVERY COMPOSITIONS AND METHODS” (priority 2016, published 2019).
# Assay: Clinical chemistry of a healthy dog given 1.5 mg/kg on day 1 and 2.0 mg/kg on day 70, sub-mucosa
# Format: in vivo
# Method: Before each dose, the dog was examined by clinical chemistry, hematology, and urinalysis. Additional examinations of clinical chemistry and hematology were performed on days 7, 14, and 42 after the first dose. Additional tests of urinalysis were performed on days 7 and 14 after the first dose. The potential drug-induced toxicities were monitored for 56 days after the second dose. Specifically, clinical chemistry and urinalysis were performed on days 7, 14, 21, and 56, and hematology was performed on days 7, 14, and 56 after the second dose to evaluate the tolerability and toxicity of the formulation.
# Clinical chemistry examinations were performed at pre- and post-dose for both injections. The injections were given via the sub-mucosa in the mouth.
substance,measurement,setting,value
HA-cis-[Pt(NH3)2(N^α-Acetyl-L-Lysine)] [75HA-Lys-Pt],ALP elevation,"2 mg/kg, 7-days post-dose",0.7 fold
same,ALT elevation,"2 mg/kg, 7-days post-dose",4.6 fold
same,AST elevation,"2 mg/kg, 7-days post-dose",8.7 fold
same,"ALP, higher than the pre-dose level","2 mg/kg, 8-weeks post-dose",0.27 fold
same,Alanine aminotransferase,"2 mg/kg, 7 days after",330 U/L
same,Albumin,"2 mg/kg, 7 days after",2.5 g/dL
same,Alkaline phosphatase,"2 mg/kg, 7 days after",237 U/L
same,Aspartate aminotransferase,"2 mg/kg, 7 days after",309 U/L
same,Calcium,"2 mg/kg, 7 days after",9.3 mg/dL
same,Cholesterol,"2 mg/kg, 7 days after",81 mg/dL
same,Creatine kinase,"2 mg/kg, 7 days after",105 U/L
same,Creatinine,"2 mg/kg, 7 days after",0.25 mg/dL
same,Gamma glutamyltransferase,"2 mg/kg, 7 days after",0 U/L
same,Globulin,"2 mg/kg, 7 days after",2.9 g/dL
same,Glucose,"2 mg/kg, 7 days after",83 mg/dL
same,Inorganic Phosphorus,"2 mg/kg, 7 days after",2.8 mg/dL
same,Total Bilirubin,"2 mg/kg, 7 days after",0.3 mg/dL
same,Total Protein,"2 mg/kg, 7 days after",5.4 g/dL
same,Triglyceride,"2 mg/kg, 7 days after",32 mg/dL
same,Urea Nitrogen,"2 mg/kg, 7 days after",11 mg/dL
same,Alanine aminotransferase,"2 mg/kg, 14 days after",223 U/L
same,Albumin,"2 mg/kg, 14 days after",2.4 g/dL
same,Alkaline phosphatase,"2 mg/kg, 14 days after",249 U/L
same,Calcium,"2 mg/kg, 14 days after",8.6 mg/dL
same,Cholesterol,"2 mg/kg, 14 days after",75 mg/dL
same,Creatine kinase,"2 mg/kg, 14 days after",143 U/L
same,Creatinine,"2 mg/kg, 14 days after",0.3 mg/dL
same,Gamma glutamyltransferase,"2 mg/kg, 14 days after",0 U/L
same,Glucose,"2 mg/kg, 14 days after",76 mg/dL
same,Inorganic Phosphorus,"2 mg/kg, 14 days after",3.4 mg/dL
same,Total Bilirubin,"2 mg/kg, 14 days after",0.1 mg/dL
same,Total Protein,"2 mg/kg, 14 days after",5.5 g/dL
same,Triglyceride,"2 mg/kg, 14 days after",43 mg/dL
same,Urea Nitrogen,"2 mg/kg, 14 days after",14 mg/dL
same,Alanine aminotransferase,"2 mg/kg, 21 days after",198 U/L
same,Albumin,"2 mg/kg, 21 days after",2.7 g/dL
same,Alkaline phosphatase,"2 mg/kg, 21 days after",219 U/L
same,Aspartate aminotransferase,"2 mg/kg, 21 days after",129 U/L
same,Calcium,"2 mg/kg, 21 days after",9.3 mg/dL
same,Cholesterol,"2 mg/kg, 21 days after",70 mg/dL
same,Creatinine,"2 mg/kg, 21 days after",0.33 mg/dL
same,Gamma glutamyltransferase,"2 mg/kg, 21 days after",0 U/L
same,Glucose,"2 mg/kg, 21 days after",64 mg/dL
same,Inorganic Phosphorus,"2 mg/kg, 21 days after",3.9 mg/dL
same,Total Bilirubin,"2 mg/kg, 21 days after",0.2 mg/dL
same,Total Protein,"2 mg/kg, 21 days after",5.8 g/dL
same,Triglyceride,"2 mg/kg, 21 days after",39 mg/dL
same,Urea Nitrogen,"2 mg/kg, 21 days after",14 mg/dL
same,Alanine aminotransferase,"2 mg/kg, 56 days after",220 U/L
same,Albumin,"2 mg/kg, 56 days after",3.0 g/dL
same,Alkaline phosphatase,"2 mg/kg, 56 days after",173 U/L
same,Aspartate aminotransferase,"2 mg/kg, 56 days after",138 U/L
same,Calcium,"2 mg/kg, 56 days after",9.7 mg/dL
same,Cholesterol,"2 mg/kg, 56 days after",86 mg/dL
same,Creatine kinase,"2 mg/kg, 56 days after",117 U/L
same,Creatinine,"2 mg/kg, 56 days after",0.3 mg/dL
same,Gamma glutamyltransferase,"2 mg/kg, 56 days after",0 U/L
same,Globulin,"2 mg/kg, 56 days after",3.3 g/dL
same,Glucose,"2 mg/kg, 56 days after",73 mg/dL
same,Inorganic Phosphorus,"2 mg/kg, 56 days after",2.5 mg/dL
same,Total Bilirubin,"2 mg/kg, 56 days after",0.4 mg/dL
same,Total Protein,"2 mg/kg, 56 days after",6.3 g/dL
same,Triglyceride,"2 mg/kg, 56 days after",42 mg/dL
same,Urea Nitrogen,"2 mg/kg, 56 days after",14 mg/dL
same,Alanine aminotransferase,"[…], 7 days after",36 U/L
same,Albumin,"[…], 7 days after",2.4 g/dL
same,Alkaline phosphatase,"[…], 7 days after",132 U/L
same,Aspartate aminotransferase,"[…], 7 days after",67 U/L
same,Calcium,"[…], 7 days after",8.8 mg/dL
same,Cholesterol,"[…], 7 days after",89 mg/dL
same,Creatine kinase,"[…], 7 days after",93 U/L
same,Creatinine,"[…], 7 days after",0.33 mg/dL
same,Globulin,"[…], 7 days after",2.6 g/dL
same,Glucose,"[…], 7 days after",70 mg/dL
same,Inorganic Phosphorus,"[…], 7 days after",3.3 mg/dL
same,Total Bilirubin,"[…], 7 days after",0.1 mg/dL
same,Total Protein,"[…], 7 days after",5.0 g/dL
same,Triglyceride,"[…], 7 days after",34 mg/dL
same,Urea Nitrogen,"[…], 7 days after",13 mg/dL
same,Alanine aminotransferase,"[…], 14 days",57 U/L
same,Albumin,"[…], 14 days",2.4 g/dL
same,Alkaline phosphatase,"[…], 14 days",116 U/L
same,Aspartate aminotransferase,"[…], 14 days",89 U/L
same,Calcium,"[…], 14 days",9.4 mg/dL
same,Cholesterol,"[…], 14 days",97 mg/dL
same,Creatine kinase,"[…], 14 days",207 U/L
same,Creatinine,"[…], 14 days",0.35 mg/dL
same,Globulin,"[…], 14 days",2.8 g/dL
same,Glucose,"[…], 14 days",80 mg/dL
same,Inorganic Phosphorus,"[…], 14 days",5.5 mg/dL
same,Total Bilirubin,"[…], 14 days",0.0 mg/dL
same,Total Protein,"[…], 14 days",5.2 g/dL
same,Triglyceride,"[…], 14 days",38 mg/dL
same,Urea Nitrogen,"[…], 14 days",19 mg/dL
same,Alanine aminotransferase,"[…], 42 days",74 U/L
same,Albumin,"[…], 42 days",3.0 g/dL
same,Alkaline phosphatase,"[…], 42 days",125 U/L
same,Aspartate aminotransferase,"[…], 42 days",39 U/L
same,Creatine kinase,"[…], 42 days",159 U/L
same,Globulin,"[…], 42 days",2.5 g/dL
same,Total Bilirubin,"[…], 42 days",0.0 mg/dL
same,Total Protein,"[…], 42 days",5.5 g/dL
